B1: GFOD1 (parent)
chain: SDDFCTFQMVLEGGVCCTVTLNFN

Variants of: B1
Test: protein stability index of a GFP-peptide fusion (GPS, HEK-293T) (PSI 1-6); higher = more stable
Details: c terminus: a fixed tail appended
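Further: lentivirally expressed fusions sorted by FACS into six bins by GFP to DsRed ratio, PSI derived from sequencing read proportions per bin multiplied by bin number.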

Row | Variant | protein stability index
1 | SDDFCTFQMVLEGGECCTVTLNFN [V15E] | 2.33
2 | SDDFCTFQMVLEGGQCCTVTLNFN [V15Q] | 2.94
3 | SDDFCTFQMVLEGGVSCTVTLNFN [C16S] | 3.6
4 | SDDFCTFQMVLEGGVWCTVTLNFN [C16W] | 2.8
5 | SDDFCTFQMVLEGGVQCTVTLNFN [C16Q] | 2.45
6 | SDDFCTFQMVLEGGVPCTVTLNFN [C16P] | 2.65
7 | SDDFCTFQMVLEGGVICTVTLNFN [C16I] | 3.88
8 | SDDFCTFQMVLEGGVFCTVTLNFN [C16F] | 1.78
9 | SDDFCTFQMVLEGGVGCTVTLNFN [C16G] | 3.63
10 | SDDFCTFQMVLEGGVKCTVTLNFN [C16K] | 2.95
11 | SDDFCTFQMVLEGGVACTVTLNFN [C16A] | 4.12
12 | SDDFCTFQMVLEGGVTCTVTLNFN [C16T] | 3.75
13 | SDDFCTFQMVLEGGVDCTVTLNFN [C16D] | 2.56
14 | SDDFCTFQMVLEGGVVCTVTLNFN [C16V] | 2.46
15 | SDDFCTFQMVLEGGVECTVTLNFN [C16E] | 2.24
16 | SDDFCTFQMVLEGGVHCTVTLNFN [C16H] | 3.09
17 | SDDFCTFQMVLEGGVNCTVTLNFN [C16N] | 2.89
18 | SDDFCTFQMVLEGGVYCTVTLNFN [C16Y] | 2.76
19 | SDDFCTFQMVLEGGVCCTLTLNFN [V19L] | 3.49
20 | SDDFCTFQMVLEGGVCCTETLNFN [V19E] | 2.11
21 | SDDFCTFQMVLEGGVCCTGTLNFN [V19G] | 2.02
22 | SDDFCTFQMVLEGGVCCTFTLNFN [V19F] | 2.73
23 | SDDFCTFQMVLEGGVCCTCTLNFN [V19C] | 3.15
24 | SDDFCTFQMVLEGGVCCTITLNFN [V19I] | 3.22

Row | Variant | protein stability index
25 | SDDFCTFQMVLEGGVCCTKTLNFN [V19K] | 1.22
26 | SDDFCTFQMVLEGGVCCTPTLNFN [V19P] | 2.12
27 | SDDFCTFQMVLEGGVCCTDTLNFN [V19D] | 2.65
28 | SDDFCTFQMVLEGGVCCTHTLNFN [V19H] | 2.41
29 | SDDFCTFQMVLEGGVCCTNTLNFN [V19N] | 2.07
30 | SDDFCTFQMVLEGGVCCTATLNFN [V19A] | 1.95
31 | SDDFCTVQMVLEGGVCCTVTLNFN [F7V] | 1.98
32 | SDDFCTKQMVLEGGVCCTVTLNFN [F7K] | 1.93
33 | SDDFCTDQMVLEGGVCCTVTLNFN [F7D] | 1.59
34 | SDDFCTPQMVLEGGVCCTVTLNFN [F7P] | 1.46
35 | SDDFCTWQMVLEGGVCCTVTLNFN [F7W] | 2.67
36 | SDDFCTTQMVLEGGVCCTVTLNFN [F7T] | 2.64
37 | SDDFCTNQMVLEGGVCCTVTLNFN [F7N] | 1.63
38 | SDDFCTYQMVLEGGVCCTVTLNFN [F7Y] | 2.77
39 | SDDFCTHQMVLEGGVCCTVTLNFN [F7H] | 2.26
40 | SDDFCTGQMVLEGGVCCTVTLNFN [F7G] | 2.88
41 | SDDFCTEQMVLEGGVCCTVTLNFN [F7E] | 2.03
42 | SDDFCTFQMVLEEGVCCTVTLNFN [G13E] | 2.48
43 | SDDFCTFQMVLEPGVCCTVTLNFN [G13P] | 2.92
44 | SDDFCTFQMVLEIGVCCTVTLNFN [G13I] | 2.35
45 | SDDFCTFQMVLEAGVCCTVTLNFN [G13A] | 3.65
46 | SDDFCTFQMVLEKGVCCTVTLNFN [G13K] | 3.14
47 | SDDFCTFQMVLELGVCCTVTLNFN [G13L] | 4.34
48 | SDDFCTFQMVLENGVCCTVTLNFN [G13N] | 2.32

Row | Variant | protein stability index
49 | SDDFCTFQMVLEMGVCCTVTLNFN [G13M] | 2.94
50 | SDDFCTFQMVLERGVCCTVTLNFN [G13R] | 3.71
51 | SDDFCTFQMVLEDGVCCTVTLNFN [G13D] | 3.2
52 | SDDFCTFQMVLEFGVCCTVTLNFN [G13F] | 2.3
53 | SDDFCTFQMVLEQGVCCTVTLNFN [G13Q] | 3.22
54 | SDDFCTFQMVLEVGVCCTVTLNFN [G13V] | 2.5
55 | SDDFCTFQMFLEGGVCCTVTLNFN [V10F] | 4.27
56 | SDDFCTFQMWLEGGVCCTVTLNFN [V10W] | 3.71
57 | SDDFCTFQMNLEGGVCCTVTLNFN [V10N] | 1.83
58 | SDDFCTFQMMLEGGVCCTVTLNFN [V10M] | 1.84
59 | SDDFCTFQMQLEGGVCCTVTLNFN [V10Q] | 1.29
60 | SDDFCTFQMHLEGGVCCTVTLNFN [V10H] | 2.2
61 | SDDFCTFQMSLEGGVCCTVTLNFN [V10S] | 2.04
62 | SDDFCTFQMLLEGGVCCTVTLNFN [V10L] | 2.58
63 | SDDFCTFQMPLEGGVCCTVTLNFN [V10P] | 2.35
64 | SDDFCTFQMTLEGGVCCTVTLNFN [V10T] | 2.36
65 | SDDFCTFQMALEGGVCCTVTLNFN [V10A] | 2.91
66 | SDDFCTFQMDLEGGVCCTVTLNFN [V10D] | 3.42
67 | SDDFCTFQMKLEGGVCCTVTLNFN [V10K] | 2.56
68 | SDDFCTFQMCLEGGVCCTVTLNFN [V10C] | 3.77
69 | SDDFCTFQMILEGGVCCTVTLNFN [V10I] | 1
70 | SDDFCTFQMYLEGGVCCTVTLNFN [V10Y] | 1.13
71 | SDDFCTFQMVLHGGVCCTVTLNFN [E12H] | 2.37
72 | SDDFCTFQMVLGGGVCCTVTLNFN [E12G] | 3.33

Row | Variant | protein stability index
73 | SDDFCTFQMVLSGGVCCTVTLNFN [E12S] | 3.99
74 | SDDFCTFQMVLFGGVCCTVTLNFN [E12F] | 2.27
75 | SDDFCTFQMVLIGGVCCTVTLNFN [E12I] | 2.56
76 | SDDFCTFQMVLLGGVCCTVTLNFN [E12L] | 4.46
77 | SDDFCTFQMVLTGGVCCTVTLNFN [E12T] | 1.99
78 | SDDFCTFQMVLCGGVCCTVTLNFN [E12C] | 2.46
79 | SDDFCTFQMVLVGGVCCTVTLNFN [E12V] | 3.03
80 | SDDFCTFQMVLQGGVCCTVTLNFN [E12Q] | 2.74
81 | SDDFCTFQMVLMGGVCCTVTLNFN [E12M] | 3.38
82 | SDDFCTFQMVLAGGVCCTVTLNFN [E12A] | 3.59
83 | SDDFCTFQMVLNGGVCCTVTLNFN [E12N] | 3.79
84 | SDDFCTFQMVLWGGVCCTVTLNFN [E12W] | 2.6
85 | SDDFCGFQMVLEGGVCCTVTLNFN [T6G] | 2.51
86 | SDDFCYFQMVLEGGVCCTVTLNFN [T6Y] | 1.92
87 | SDDFCIFQMVLEGGVCCTVTLNFN [T6I] | 2.48
88 | SDDFCWFQMVLEGGVCCTVTLNFN [T6W] | 2.35
89 | SDDFCHFQMVLEGGVCCTVTLNFN [T6H] | 2.12
90 | SDDFCNFQMVLEGGVCCTVTLNFN [T6N] | 2.54
91 | SDDFCMFQMVLEGGVCCTVTLNFN [T6M] | 3.02
92 | SDDFCKFQMVLEGGVCCTVTLNFN [T6K] | 2.04
93 | SDDFCPFQMVLEGGVCCTVTLNFN [T6P] | 1.65
94 | SDDFCFFQMVLEGGVCCTVTLNFN [T6F] | 2.48

Reference: the supplement of paper PMC10567573
